Data taken from patent US20260049138A1 (Chugai, published 2026).

Biological target: T1, CD3ε homodimer protein (human, UniProt P07766 23-126, limits assumed)
T1 construct: also called CD3 (CD3ε)
Experiment: SPR Biacore T200, CD3ε homodimer on chip;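 note: Light-chain single-residue variant antibodies injected over amine-coupled CD3ε homodimer on a CM4 chip at 25 °C, bound amount divided by that of the GLS3000-containing antibody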

T1 sequence (P07766 23-126 limits assumed): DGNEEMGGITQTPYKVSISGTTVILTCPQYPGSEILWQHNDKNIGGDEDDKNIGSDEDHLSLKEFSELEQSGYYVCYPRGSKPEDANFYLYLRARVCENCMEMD

Binder | ratio of amount bound vs unaltered GLS3000
GLS3000 N30F one-arm antibody (antibody, human IgG1, kappa, L234A L235A, N297A, name in Kabat numbering) heavy: QVQLVESGGGVVQPGRSLRLSCAASGFTFSNAWMHWVRQAPGKGLEWVAQIKAKSNNYATYYAESVKGRFTISRDDSKNSLYLQMNSLKTEDTAVYYCRYVHYGAYYGVDAWGQGTTVTVSSASTKGPSVFPLAPSSKSTSGGTAALGCLVKDYFPEPVTVSWNSGALTSGVHTFPAVLQSSGLYSLSSVVTVPSSSLGTQTYICNVNHKPSNTKVDKKVEPKSCDKTHTCPPCPAPEAAGGPSVFLFPPKPKDTLMISRTPEVTCVVVDVSHEDPEVKFNWYVDGVEVHNAKTKPREEQYASTYRVVSVLTVLHQDWLNGKEYKCKVSNKALPAPIEKTISKAKGQPREPQVYTLPPSRCELTKNQVSLSCAVKGFYPSDIAVEWESNGQPENNYKTTPPVLDSDGSFFLVSKLTVDKSRWQQGNVFSCSVMHEALHNHYTQKSLSLSPDYKDDDDK EPKSSDKTHTCPPCPAPELLGGPSVFLFPPKPKDTLMISRTPEVTCVVVDVSHEDPEVKFNWYVDGVEVHNAKTKPREEQYNSTYRVVSVLTVLHQDWLNGKEYKCKVSNKALPAPIEKTISKAKGQPREPQVCTLPPSRDELTKNQVSLWCLVKGFYPSDIAVEWESNGQPENNYKTTPPVLDSDGSFFLYSKLTVDKSRWQQGNVFSCSVMHEALHNRYTQKSLSLSP light: DIVMTQSPLSLPVTPGEPASISCRSSQSLVHSNRFTYLHWYQQKPGQAPRLLIYKVSNRFSGVPDRFSGSGSGTDFTLKISRVEAEDVGVYYCGQGTQVPYTFGQGTKLEIKRTVAAPSVFIFPPSDEQLKSGTASVVCLLNNFYPREAKVQWKVDNALQSGNSQESVTEQDSKDSTYSLSSTLTLSKADYEKHKVYACEVTHQGLSSPVTKSFNRGEC | 1.1
GLS3000 N30G one-arm antibody (antibody, human IgG1, kappa, L234A L235A, N297A, name in Kabat numbering) heavy: QVQLVESGGGVVQPGRSLRLSCAASGFTFSNAWMHWVRQAPGKGLEWVAQIKAKSNNYATYYAESVKGRFTISRDDSKNSLYLQMNSLKTEDTAVYYCRYVHYGAYYGVDAWGQGTTVTVSSASTKGPSVFPLAPSSKSTSGGTAALGCLVKDYFPEPVTVSWNSGALTSGVHTFPAVLQSSGLYSLSSVVTVPSSSLGTQTYICNVNHKPSNTKVDKKVEPKSCDKTHTCPPCPAPEAAGGPSVFLFPPKPKDTLMISRTPEVTCVVVDVSHEDPEVKFNWYVDGVEVHNAKTKPREEQYASTYRVVSVLTVLHQDWLNGKEYKCKVSNKALPAPIEKTISKAKGQPREPQVYTLPPSRCELTKNQVSLSCAVKGFYPSDIAVEWESNGQPENNYKTTPPVLDSDGSFFLVSKLTVDKSRWQQGNVFSCSVMHEALHNHYTQKSLSLSPDYKDDDDK EPKSSDKTHTCPPCPAPELLGGPSVFLFPPKPKDTLMISRTPEVTCVVVDVSHEDPEVKFNWYVDGVEVHNAKTKPREEQYNSTYRVVSVLTVLHQDWLNGKEYKCKVSNKALPAPIEKTISKAKGQPREPQVCTLPPSRDELTKNQVSLWCLVKGFYPSDIAVEWESNGQPENNYKTTPPVLDSDGSFFLYSKLTVDKSRWQQGNVFSCSVMHEALHNRYTQKSLSLSP light: DIVMTQSPLSLPVTPGEPASISCRSSQSLVHSNRGTYLHWYQQKPGQAPRLLIYKVSNRFSGVPDRFSGSGSGTDFTLKISRVEAEDVGVYYCGQGTQVPYTFGQGTKLEIKRTVAAPSVFIFPPSDEQLKSGTASVVCLLNNFYPREAKVQWKVDNALQSGNSQESVTEQDSKDSTYSLSSTLTLSKADYEKHKVYACEVTHQGLSSPVTKSFNRGEC | 0.47
GLS3000 N30H one-arm antibody (antibody, human IgG1, kappa, L234A L235A, N297A, name in Kabat numbering) heavy: QVQLVESGGGVVQPGRSLRLSCAASGFTFSNAWMHWVRQAPGKGLEWVAQIKAKSNNYATYYAESVKGRFTISRDDSKNSLYLQMNSLKTEDTAVYYCRYVHYGAYYGVDAWGQGTTVTVSSASTKGPSVFPLAPSSKSTSGGTAALGCLVKDYFPEPVTVSWNSGALTSGVHTFPAVLQSSGLYSLSSVVTVPSSSLGTQTYICNVNHKPSNTKVDKKVEPKSCDKTHTCPPCPAPEAAGGPSVFLFPPKPKDTLMISRTPEVTCVVVDVSHEDPEVKFNWYVDGVEVHNAKTKPREEQYASTYRVVSVLTVLHQDWLNGKEYKCKVSNKALPAPIEKTISKAKGQPREPQVYTLPPSRCELTKNQVSLSCAVKGFYPSDIAVEWESNGQPENNYKTTPPVLDSDGSFFLVSKLTVDKSRWQQGNVFSCSVMHEALHNHYTQKSLSLSPDYKDDDDK EPKSSDKTHTCPPCPAPELLGGPSVFLFPPKPKDTLMISRTPEVTCVVVDVSHEDPEVKFNWYVDGVEVHNAKTKPREEQYNSTYRVVSVLTVLHQDWLNGKEYKCKVSNKALPAPIEKTISKAKGQPREPQVCTLPPSRDELTKNQVSLWCLVKGFYPSDIAVEWESNGQPENNYKTTPPVLDSDGSFFLYSKLTVDKSRWQQGNVFSCSVMHEALHNRYTQKSLSLSP light: DIVMTQSPLSLPVTPGEPASISCRSSQSLVHSNRHTYLHWYQQKPGQAPRLLIYKVSNRFSGVPDRFSGSGSGTDFTLKISRVEAEDVGVYYCGQGTQVPYTFGQGTKLEIKRTVAAPSVFIFPPSDEQLKSGTASVVCLLNNFYPREAKVQWKVDNALQSGNSQESVTEQDSKDSTYSLSSTLTLSKADYEKHKVYACEVTHQGLSSPVTKSFNRGEC | 0.98
GLS3000 N30I one-arm antibody (antibody, human IgG1, kappa, L234A L235A, N297A, name in Kabat numbering) heavy: QVQLVESGGGVVQPGRSLRLSCAASGFTFSNAWMHWVRQAPGKGLEWVAQIKAKSNNYATYYAESVKGRFTISRDDSKNSLYLQMNSLKTEDTAVYYCRYVHYGAYYGVDAWGQGTTVTVSSASTKGPSVFPLAPSSKSTSGGTAALGCLVKDYFPEPVTVSWNSGALTSGVHTFPAVLQSSGLYSLSSVVTVPSSSLGTQTYICNVNHKPSNTKVDKKVEPKSCDKTHTCPPCPAPEAAGGPSVFLFPPKPKDTLMISRTPEVTCVVVDVSHEDPEVKFNWYVDGVEVHNAKTKPREEQYASTYRVVSVLTVLHQDWLNGKEYKCKVSNKALPAPIEKTISKAKGQPREPQVYTLPPSRCELTKNQVSLSCAVKGFYPSDIAVEWESNGQPENNYKTTPPVLDSDGSFFLVSKLTVDKSRWQQGNVFSCSVMHEALHNHYTQKSLSLSPDYKDDDDK EPKSSDKTHTCPPCPAPELLGGPSVFLFPPKPKDTLMISRTPEVTCVVVDVSHEDPEVKFNWYVDGVEVHNAKTKPREEQYNSTYRVVSVLTVLHQDWLNGKEYKCKVSNKALPAPIEKTISKAKGQPREPQVCTLPPSRDELTKNQVSLWCLVKGFYPSDIAVEWESNGQPENNYKTTPPVLDSDGSFFLYSKLTVDKSRWQQGNVFSCSVMHEALHNRYTQKSLSLSP light: DIVMTQSPLSLPVTPGEPASISCRSSQSLVHSNRITYLHWYQQKPGQAPRLLIYKVSNRFSGVPDRFSGSGSGTDFTLKISRVEAEDVGVYYCGQGTQVPYTFGQGTKLEIKRTVAAPSVFIFPPSDEQLKSGTASVVCLLNNFYPREAKVQWKVDNALQSGNSQESVTEQDSKDSTYSLSSTLTLSKADYEKHKVYACEVTHQGLSSPVTKSFNRGEC | 0.61
GLS3000 N30K one-arm antibody (antibody, human IgG1, kappa, L234A L235A, N297A, name in Kabat numbering) heavy: QVQLVESGGGVVQPGRSLRLSCAASGFTFSNAWMHWVRQAPGKGLEWVAQIKAKSNNYATYYAESVKGRFTISRDDSKNSLYLQMNSLKTEDTAVYYCRYVHYGAYYGVDAWGQGTTVTVSSASTKGPSVFPLAPSSKSTSGGTAALGCLVKDYFPEPVTVSWNSGALTSGVHTFPAVLQSSGLYSLSSVVTVPSSSLGTQTYICNVNHKPSNTKVDKKVEPKSCDKTHTCPPCPAPEAAGGPSVFLFPPKPKDTLMISRTPEVTCVVVDVSHEDPEVKFNWYVDGVEVHNAKTKPREEQYASTYRVVSVLTVLHQDWLNGKEYKCKVSNKALPAPIEKTISKAKGQPREPQVYTLPPSRCELTKNQVSLSCAVKGFYPSDIAVEWESNGQPENNYKTTPPVLDSDGSFFLVSKLTVDKSRWQQGNVFSCSVMHEALHNHYTQKSLSLSPDYKDDDDK EPKSSDKTHTCPPCPAPELLGGPSVFLFPPKPKDTLMISRTPEVTCVVVDVSHEDPEVKFNWYVDGVEVHNAKTKPREEQYNSTYRVVSVLTVLHQDWLNGKEYKCKVSNKALPAPIEKTISKAKGQPREPQVCTLPPSRDELTKNQVSLWCLVKGFYPSDIAVEWESNGQPENNYKTTPPVLDSDGSFFLYSKLTVDKSRWQQGNVFSCSVMHEALHNRYTQKSLSLSP light: DIVMTQSPLSLPVTPGEPASISCRSSQSLVHSNRKTYLHWYQQKPGQAPRLLIYKVSNRFSGVPDRFSGSGSGTDFTLKISRVEAEDVGVYYCGQGTQVPYTFGQGTKLEIKRTVAAPSVFIFPPSDEQLKSGTASVVCLLNNFYPREAKVQWKVDNALQSGNSQESVTEQDSKDSTYSLSSTLTLSKADYEKHKVYACEVTHQGLSSPVTKSFNRGEC | 1.65
GLS3000 N30L one-arm antibody (antibody, human IgG1, kappa, L234A L235A, N297A, name in Kabat numbering) heavy: QVQLVESGGGVVQPGRSLRLSCAASGFTFSNAWMHWVRQAPGKGLEWVAQIKAKSNNYATYYAESVKGRFTISRDDSKNSLYLQMNSLKTEDTAVYYCRYVHYGAYYGVDAWGQGTTVTVSSASTKGPSVFPLAPSSKSTSGGTAALGCLVKDYFPEPVTVSWNSGALTSGVHTFPAVLQSSGLYSLSSVVTVPSSSLGTQTYICNVNHKPSNTKVDKKVEPKSCDKTHTCPPCPAPEAAGGPSVFLFPPKPKDTLMISRTPEVTCVVVDVSHEDPEVKFNWYVDGVEVHNAKTKPREEQYASTYRVVSVLTVLHQDWLNGKEYKCKVSNKALPAPIEKTISKAKGQPREPQVYTLPPSRCELTKNQVSLSCAVKGFYPSDIAVEWESNGQPENNYKTTPPVLDSDGSFFLVSKLTVDKSRWQQGNVFSCSVMHEALHNHYTQKSLSLSPDYKDDDDK EPKSSDKTHTCPPCPAPELLGGPSVFLFPPKPKDTLMISRTPEVTCVVVDVSHEDPEVKFNWYVDGVEVHNAKTKPREEQYNSTYRVVSVLTVLHQDWLNGKEYKCKVSNKALPAPIEKTISKAKGQPREPQVCTLPPSRDELTKNQVSLWCLVKGFYPSDIAVEWESNGQPENNYKTTPPVLDSDGSFFLYSKLTVDKSRWQQGNVFSCSVMHEALHNRYTQKSLSLSP light: DIVMTQSPLSLPVTPGEPASISCRSSQSLVHSNRLTYLHWYQQKPGQAPRLLIYKVSNRFSGVPDRFSGSGSGTDFTLKISRVEAEDVGVYYCGQGTQVPYTFGQGTKLEIKRTVAAPSVFIFPPSDEQLKSGTASVVCLLNNFYPREAKVQWKVDNALQSGNSQESVTEQDSKDSTYSLSSTLTLSKADYEKHKVYACEVTHQGLSSPVTKSFNRGEC | 0.7
